Source: paper PMC3089470 (Nucleic Acids Research, 2011)

Tests used:
Assay in all cases: pull-down
[1] = molecular target: purified recombinant MRN complex (Mre11:Rad50:NBS1) (UniProt P49959;Q92878;O60934)
[2] = molecular target: T1, NBS1A with the mutation R215W (UniProt O60934 1-221, R215W)
T1 sequence: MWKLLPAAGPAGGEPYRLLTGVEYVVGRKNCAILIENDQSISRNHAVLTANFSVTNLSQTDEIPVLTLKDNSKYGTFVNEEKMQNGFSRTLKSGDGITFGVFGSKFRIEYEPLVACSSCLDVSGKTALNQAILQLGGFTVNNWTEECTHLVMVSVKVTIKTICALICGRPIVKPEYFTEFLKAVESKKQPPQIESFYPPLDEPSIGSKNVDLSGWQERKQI

[3] = molecular target: T2, GST-tagged NBS1 fragment NBS1A (1-221) (UniProt O60934 1-221)
T2 sequence: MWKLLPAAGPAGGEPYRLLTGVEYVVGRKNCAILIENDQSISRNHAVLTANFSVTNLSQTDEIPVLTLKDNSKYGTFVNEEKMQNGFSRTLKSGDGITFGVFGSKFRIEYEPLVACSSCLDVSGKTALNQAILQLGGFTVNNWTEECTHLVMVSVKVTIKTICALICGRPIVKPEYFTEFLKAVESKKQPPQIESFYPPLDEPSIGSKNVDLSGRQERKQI

[4] = molecular target: T3, NBS1A with the mutation I171V (UniProt O60934 1-221, I171V)
T3 sequence: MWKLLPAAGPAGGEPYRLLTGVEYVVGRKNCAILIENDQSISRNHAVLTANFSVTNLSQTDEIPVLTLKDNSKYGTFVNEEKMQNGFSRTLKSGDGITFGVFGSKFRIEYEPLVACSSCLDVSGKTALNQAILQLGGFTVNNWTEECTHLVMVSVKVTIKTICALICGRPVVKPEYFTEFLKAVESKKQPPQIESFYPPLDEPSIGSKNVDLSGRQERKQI

Sequence of purified recombinant MRN complex (Mre11:Rad50:NBS1) (P49959 whole entry, chain 1 of 2): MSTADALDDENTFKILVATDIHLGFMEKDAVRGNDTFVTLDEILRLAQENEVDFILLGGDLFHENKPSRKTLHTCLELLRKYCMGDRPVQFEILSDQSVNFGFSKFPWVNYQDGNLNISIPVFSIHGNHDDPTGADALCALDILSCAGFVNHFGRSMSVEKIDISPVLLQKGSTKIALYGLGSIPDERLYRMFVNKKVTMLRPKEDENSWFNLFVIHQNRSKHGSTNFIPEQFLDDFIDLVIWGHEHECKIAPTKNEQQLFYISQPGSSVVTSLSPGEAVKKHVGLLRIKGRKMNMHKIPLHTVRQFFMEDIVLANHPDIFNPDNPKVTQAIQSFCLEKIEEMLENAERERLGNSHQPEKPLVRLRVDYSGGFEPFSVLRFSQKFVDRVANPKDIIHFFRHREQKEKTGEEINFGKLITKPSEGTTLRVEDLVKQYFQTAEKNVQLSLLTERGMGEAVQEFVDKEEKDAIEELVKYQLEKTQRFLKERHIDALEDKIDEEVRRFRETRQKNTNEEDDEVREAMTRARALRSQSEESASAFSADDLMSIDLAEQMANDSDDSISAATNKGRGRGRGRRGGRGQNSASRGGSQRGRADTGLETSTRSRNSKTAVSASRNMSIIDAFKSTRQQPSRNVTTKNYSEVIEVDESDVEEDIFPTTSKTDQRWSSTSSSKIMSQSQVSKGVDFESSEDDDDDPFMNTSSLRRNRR
Sequence of purified recombinant MRN complex (Mre11:Rad50:NBS1) (Q92878 whole entry, chain 2 of 2): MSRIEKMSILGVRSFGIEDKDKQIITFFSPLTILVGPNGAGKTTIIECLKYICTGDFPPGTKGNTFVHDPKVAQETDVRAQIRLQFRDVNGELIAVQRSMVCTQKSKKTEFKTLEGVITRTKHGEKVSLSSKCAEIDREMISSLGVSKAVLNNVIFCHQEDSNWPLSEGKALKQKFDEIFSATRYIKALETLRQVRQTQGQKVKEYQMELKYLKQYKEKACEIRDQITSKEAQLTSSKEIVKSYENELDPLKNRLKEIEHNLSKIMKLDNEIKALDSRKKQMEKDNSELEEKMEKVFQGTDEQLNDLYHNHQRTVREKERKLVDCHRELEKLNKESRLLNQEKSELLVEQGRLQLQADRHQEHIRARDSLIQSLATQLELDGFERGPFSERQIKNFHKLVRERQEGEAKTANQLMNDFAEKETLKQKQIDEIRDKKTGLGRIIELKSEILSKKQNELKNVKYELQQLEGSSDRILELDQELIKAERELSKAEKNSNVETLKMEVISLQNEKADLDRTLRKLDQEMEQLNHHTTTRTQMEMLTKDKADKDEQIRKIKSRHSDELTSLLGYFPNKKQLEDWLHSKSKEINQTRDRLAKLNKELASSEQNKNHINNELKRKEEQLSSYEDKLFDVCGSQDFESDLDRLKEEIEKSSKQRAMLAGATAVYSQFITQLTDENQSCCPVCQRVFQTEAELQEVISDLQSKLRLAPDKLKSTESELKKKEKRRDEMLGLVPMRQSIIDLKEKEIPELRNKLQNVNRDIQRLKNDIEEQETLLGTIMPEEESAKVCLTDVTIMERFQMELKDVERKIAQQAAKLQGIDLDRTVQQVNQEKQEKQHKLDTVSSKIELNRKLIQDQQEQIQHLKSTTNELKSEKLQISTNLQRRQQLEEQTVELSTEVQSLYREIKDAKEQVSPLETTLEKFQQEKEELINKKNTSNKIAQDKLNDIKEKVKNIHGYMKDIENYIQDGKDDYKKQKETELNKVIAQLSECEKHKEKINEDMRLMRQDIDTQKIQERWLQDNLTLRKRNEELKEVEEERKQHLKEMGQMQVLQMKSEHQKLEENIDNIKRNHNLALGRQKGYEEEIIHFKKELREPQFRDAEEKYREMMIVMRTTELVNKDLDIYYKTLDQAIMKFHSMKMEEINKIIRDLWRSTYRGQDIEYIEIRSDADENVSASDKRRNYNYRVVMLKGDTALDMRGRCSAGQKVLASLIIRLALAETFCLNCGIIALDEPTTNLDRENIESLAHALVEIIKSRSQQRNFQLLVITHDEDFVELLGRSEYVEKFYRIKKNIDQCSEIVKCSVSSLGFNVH

- binding result [1]: binds
- binding result [2]: binds
- binding result [3]: binds
- binding result [4]: binds
B1: hSSB1, full-length recombinant, His-tagged (natural protein)
chain: MTTETFVKDIKPGLKNLNLIFIVLETGRVTKTKDGHEVRTCKVADKTGSINISVWDDVGNLIQPGDIIRLTKGYASVFKGCLTLYTGRGGDLQKIGEFCMVYSEVPNFSEPNPEYSTQQAPNKAVQNDSNPSASQPTTGPSAASPASENQNGNGLSAPPGPGGGPHPPHTPSHPPSTRITRSQPNHTPAGPPGPSSNPVSNGKETRRSSKR
